Measured values from PMC6509359.
Blank lines part the entries; values can stand above or below the substance they belong to.

Tests used:
[1] = target: Chimera: Huma USP25 (157-[AIM of D. rerio USP28]-714) (human | zebrafish (Danio rerio)); experiment: SEC-MALS; 100 μL of 1-2 mg/mL protein on Superdex 200 10/300, 0.5 mL/min, PBS + 2 mM DTT
[2] = target: Chimera: Human USP25 (157-[Insert of Human USP28]-714) (human); experiment: as above
[3] = target: Chimera: Human USP28 (149-[Insert of Human USP25]-703) (human); experiment: as above
[4] = target: D. rerio USP28 (1-738,763-1187) (zebrafish (Danio rerio)); experiment: not stated; oligomeric states of purified orthologs and of full-length proteins, Figures S7A, S7B and S3J
[5] = target: D. rerio USP28 (138-684) (zebrafish (Danio rerio)); experiment: as above
[6] = target: G. gallus USP25 (174-726) (chicken (Gallus gallus)); experiment: as above
[7] = target: G. gallus USP25 (174-726)∼Ub-PA (chicken (Gallus gallus) | not stated); experiment: as above

stoichiometry N [1]: 2
Substance: Chimera: Huma USP25 (157-[AIM of D. rerio USP28]-714) (domain or fragment)

stoichiometry N [2]: 2
Substance: Chimera: Human USP25 (157-[Insert of Human USP28]-714) (domain or fragment)

stoichiometry N [3]: 2
Substance: Chimera: Human USP28 (149-[Insert of Human USP25]-703) (domain or fragment)

stoichiometry N [4]: 2
Substance: D. rerio USP28 (1-738,763-1187) (enzyme)

stoichiometry N [5]: 2
Substance: D. rerio USP28 (138-684) (domain or fragment)

stoichiometry N [6]: 4
Substance: G. gallus USP25 (174-726) (domain or fragment)

stoichiometry N [7]: 2
Substance: G. gallus USP25 (174-726)∼Ub-PA (from UniProt P0CG48 1-75) (complex)
